Here are results for 2 molecules from publication PMC3581573 (PLoS ONE, 2013).

Data set [1] deals with the molecule itself. Briefly: crystal structure; XlPRMT5-MEP50 co-crystallised with 1 mM SAH; 30%–40% MPD, 100 mM Bis-Tris pH 5.5, 18°C; 3.0 Å.
Data set [2] has as its target T1, Recombinant Flag-tagged human PRMT5 (human, UniProt O14744 1-637).
T1 construct: Protein arginine methyltransferase 5 (PRMT5), human; also called Flag-HsPRMT5; HsPRMT5; source: bought: SinoBiologicals (expressed in 293 cells)
Briefly: pull-down; XlMEP50 and Flag-HsPRMT5 (both 50 nM) on anti-Flag M2 agarose in TBS, 4°C, 2 hours; eluate immunoblotted for PRMT5 and MEP50; control: MEP50 without PRMT5. Conditions: both partners purified. On the technique in general: In western blotting, separated proteins are transferred to a membrane and probed.

T1 sequence (O14744 whole entry): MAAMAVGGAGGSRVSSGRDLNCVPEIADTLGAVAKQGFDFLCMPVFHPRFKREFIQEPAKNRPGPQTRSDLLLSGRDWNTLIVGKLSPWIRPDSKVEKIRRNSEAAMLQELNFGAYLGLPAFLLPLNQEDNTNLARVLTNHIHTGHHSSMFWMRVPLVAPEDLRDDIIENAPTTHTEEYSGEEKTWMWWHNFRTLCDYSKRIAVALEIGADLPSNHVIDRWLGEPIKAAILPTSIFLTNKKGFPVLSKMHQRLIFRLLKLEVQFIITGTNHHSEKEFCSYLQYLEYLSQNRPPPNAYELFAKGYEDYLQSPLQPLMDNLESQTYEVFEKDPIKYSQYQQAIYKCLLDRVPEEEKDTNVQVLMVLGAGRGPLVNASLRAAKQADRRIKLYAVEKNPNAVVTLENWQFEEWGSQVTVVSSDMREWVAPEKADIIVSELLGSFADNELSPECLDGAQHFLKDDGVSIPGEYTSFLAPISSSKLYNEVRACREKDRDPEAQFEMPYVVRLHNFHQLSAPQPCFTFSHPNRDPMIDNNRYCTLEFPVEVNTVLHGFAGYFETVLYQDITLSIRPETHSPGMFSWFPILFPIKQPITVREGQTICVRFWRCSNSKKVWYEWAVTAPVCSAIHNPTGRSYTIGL

B1: Xenopus laevis PRMT5 (enzyme, UniProt Q6NUA1 1-633, looked up)
chain: MAAGDGGRVSSGRDVACVTEVADTLGAMANQGFDFLCMPIFHPRFKREFYKEPAKSRPGPQTRSDLLLSGRDWNTLIVGKLSDWIKTDSEVSRIRKTSEAAMQQELNFSAYLGLPAFLIPLKQEDNSNLSRLLINHIHVGHHSTMFWMRVPLMAPNDLRDDLIENEPISLSEEDNSGEERTWIWWHNFRSLCDYNKKIALAIEIGADLPSGHVIDRWLGEPIKAAFLPTSIFLTNKKGFPVLTKVHQRLIFKLFKLEVQFVISGSHHHSEKDLCSYLQYLEYLSQNSPPPNAYEMFAKGYEDYLQSPLQPLMDNLESQTYEVFEKDPVKYSQYQQAVYKCLLDRVPEEEKETNIQILMVLGAGRGPLVNASLRAAKQAERKIKVYAVEKNPNAVITLEGWRYEEWGSQVTVVSGDMREWKAPEKADIIVSELLGSFGDNELSPECLDGAQHFLKDDGVSIPGEYTSYLAPISSSKLYNEVRACREKDRDPEAQFEMPYVVRLHNFHQLSDPLPCFTFHHPNKDDVIDNNRYCCLQYRVDLNTVLHGFAGYFNTVLYKDVTLSICPESHSPGMFSWFPILFPIKQPIPMREGDTVCVRFWRCNNGKKVWYEWAVTSPVCSAIHNPTGRSYTIGL
notes: Protein arginine methyltransferase 5 (PRMT5), Xenopus laevis, full-length, as the PRMT5 chain of the crystallised XlPRMT5-MEP50 complex; The complex was purified on Ni-NTA, so one or both chains probably carry a His tag; A selenomethionine form was used for phasing; also called XlPRMT5; source: Hi5 cells, baculovirus, co-expressed with MEP50, purified (Ni-NTA, Superdex 200)
By stoichiometry N is commonly meant a count of units in the complex or per binding partner. Consider B1, for which, in data set [1], the “stoichiometry N” value amounted to 4.

B2: Recombinant Xenopus laevis MEP50 alone (natural protein, UniProt Q6NUD0 1-333, looked up)
chain: MSKGSAWGRPVTAPACMEVQIGAVRYRRDGALLLAASSLSSRTWGGSIWVFKDPEGAPNESLCTAGVQTEAGVTDVAWVSEKGILVASDSGAVELWEILEKESLLVNKFAKYEHDDIVKTLSVFSDGTQAVSGGKDFSVKVWDLSQKAVLKSYNAHSSEVNCVAACPGKDTIFLSCGEDGRILLWDTRKPKPATRIDFCASDTIPTSVTWHPEKDDTFACGDETGNVSLVNIKNPDSAQTSAVHSQNITGLAYSYHSSPFLASISEDCTVAVLDADFSEVFRDLSHRDFVTGVAWSPLDHSKFTTVGWDHKVLHHHLPSEGRTENLIATKAED
notes: MEP50, Xenopus laevis; recombinant protein used without PRMT5; also called XlMEP50; Xenopus MEP50
Consider B2, for which, in data set [2], the binding result is recorded as “binds”.
